Bridge positions count the residues as written; N and C are the ends. Ends that are not written are not given here. Bounds are passed on as bounds.

The target in the assay is T1, human IL-2Rα subunit (human, UniProt P01589 22-213, limits assumed).
T1 construct: also called CD25
T1 sequence (looked up): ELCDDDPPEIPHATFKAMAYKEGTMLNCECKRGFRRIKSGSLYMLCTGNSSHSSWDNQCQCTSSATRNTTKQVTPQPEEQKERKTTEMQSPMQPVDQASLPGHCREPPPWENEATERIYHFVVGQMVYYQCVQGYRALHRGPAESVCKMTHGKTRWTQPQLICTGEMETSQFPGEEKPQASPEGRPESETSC
For the molecule FVEWQAYFSQMM [SEQ ID NO 6], the IC50 is under 100 µM.
Regarding VRMCYVAPGYVSCPRM [SEQ ID NO 104], the 50% inhibitory concentration (IC50) is under 100 µM.
Then KWICRLVPGNGACHSF [SEQ ID NO 95], with under 100 µM.
Then FIPWDEYFAQLL [SEQ ID NO 8], with under 100 µM.
Then EWECRFLPGRRGCSLF [SEQ ID NO 92], with under 100 µM.
Turning to VFCIGYGAAQSCHS [SEQ ID NO 82], the half-maximal inhibitory concentration (IC50) is under 100 µM.
Then QWSCVFSPGVRGCKLV (disulfide 4-13 (inferred)) [SEQ ID NO 97], with under 100 µM; and TRCTVIGPPWSCRF [SEQ ID NO 81], with under 100 µM.
Next, GFRCTYDPGTHSCWSI [SEQ ID NO 94]: under 100 µM.
Take NWECIFSPGRRGCSLT [SEQ ID NO 109]: the half-inhibitory concentration (IC50) is under 100 µM.
Then VRLCRVGPGYESCPAN [SEQ ID NO 103], with under 100 µM; and VRFCRSGPGWVSCGTQ [SEQ ID NO 102], with under 100 µM; and FWECVYSPGSRGCRMV (disulfide 4-13 (inferred)) [SEQ ID NO 93], with under 100 µM.
Next, RWECIYIPGRKGCTLQ [SEQ ID NO 99]: under 100 µM.
Next, VRCLYDSITRTCTF [SEQ ID NO 83]: under 100 µM; RFICRIQPGREGCWSL [SEQ ID NO 98]: under 100 µM; SWECVYMPGHQGCRLF [SEQ ID NO 101]: under 100 µM.
Regarding VSCKIDRRSGSCLF (disulfide 3-12 (inferred)) [SEQ ID NO 84], the half-inhibitory concentration (IC50) was under 100 µM.
Consider SRCVMSLQLGACIF [SEQ ID NO 80], for which the IC50 is under 100 µM.
Then DRCDTRTWGYYCWI [SEQ ID NO 86], with under 100 µM.
Molecule SKCVYDYNFGTCIF [SEQ ID NO 79] came in with an IC50 of under 100 µM.
In the case of PWVCEHYPGRRGCVLM (disulfide 4-13 (inferred)) [SEQ ID NO 96], the IC50 was under 100 µM.
Then SLNCKTRPGLRWCTWT [SEQ ID NO 100], with under 100 µM.
Then VSCRFRPDLGFCIF [SEQ ID NO 85], with under 100 µM; and GSRCYWDPGREVCIFK [SEQ ID NO 91], with under 100 µM.
DWECLFLPGRRGCTLF (disulfide 4-13 (inferred)) [SEQ ID NO 118] registered an IC50 of under 100 µM.

These data come from patent US20200399314A1 (MEDIKINE, published 2020).
